Laboratory results from US20260274991A1 (TRIVENI BIO, published 2026).

Assays:
[1] = target: human PRSS1 (R&D Systems), activated with enterokinase (human, UniProt P07477 24-247); assay: cell-based or functional assay
[2] = target: PRSS2 (R&D Systems), activated with enterokinase (human, UniProt P07478 24-247); assay: cell-based or functional assay
[3] = target: T1, human trypsin 1 with serine to alanine mutation (including a His tag at C terminus) (human, UniProt P07477 24-247); assay: SPR (Biacore), antibody captured on Protein A chip, single-cycle kinetics, 25 C
T1 construct: also called Trypsin 1 S to A
Protocol: (§1) Antibody binding kinetic experiments via Biacore were performed to screen for anti-trypsin 1/trypsin 2 antibodies having high affinity to the respective targets. All screening assays were performed at 25 C. The running buffer used was 20 mM HEPES, 300 mM NaCl, 1 mM CaCl₂, 0.01% Tween-20, pH 7.5. Antibodies (1 ug/mL) were captured on Fc2-4 of a Series S ProteinA Sensor Chip (Cytiva) flowing at 10 uL/min for 30 s. Kinetics measurements were made in single-cycle kinetics mode with a series of 4-5 concentrations with top concentration of 10-200 nM and serial dilution 4-fold. Contact time was typically 180-300 s and dissociation time ranged from 300-3600 s. Flow rate of 30 uL/min was typically used. The sensor chip was regenerated with 10 mM glycine, pH 1.5 with a contact time of 30 s flowing at 50 uL/min.

[4] = target: T2, human trypsin 2 with serine to alanine mutation (including a His tag at C terminus) (human, UniProt P07478 25-247, limits assumed); assay: as above
T2 construct: also called Trypsin 2 S to A
Protocol: as §1

Native Trypsin (abcam) = assay: cell-based or functional assay

Sequence of PRSS2 (R&D Systems), activated with enterokinase (P07478 24-247 limits assumed): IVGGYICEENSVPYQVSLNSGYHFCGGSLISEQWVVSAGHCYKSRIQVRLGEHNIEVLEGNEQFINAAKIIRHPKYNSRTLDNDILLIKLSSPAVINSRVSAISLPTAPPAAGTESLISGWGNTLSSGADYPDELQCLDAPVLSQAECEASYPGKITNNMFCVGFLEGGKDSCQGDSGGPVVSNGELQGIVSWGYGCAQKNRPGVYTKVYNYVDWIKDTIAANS
T2 sequence (P07478 other isoform, or with tags, fused parts or gaps limits assumed): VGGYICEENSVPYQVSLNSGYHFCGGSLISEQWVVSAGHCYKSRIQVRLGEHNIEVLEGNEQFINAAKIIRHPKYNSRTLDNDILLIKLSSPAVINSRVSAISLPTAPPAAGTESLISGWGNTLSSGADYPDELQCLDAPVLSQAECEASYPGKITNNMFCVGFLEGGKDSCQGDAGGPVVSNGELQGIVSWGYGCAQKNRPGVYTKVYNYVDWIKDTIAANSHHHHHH

Binder	IC50 Against 1 nM hTryp-1 [1]	IC50 Against 1 nM hTryp-2 [2]	Kd [3]	Kd [4]	IC50 Against 0.25 nM Native Trypsin (Native Trypsin (abcam))
Trypsin 1/Trypsin 2-Dual-L1-Ab1 (antibody, V domains shown) VH: EVQLLESGGGLVQPGGSLRLSCAASGFTFSSYAMSWVRQAPGKGLEWVSAISASGGSTYYADSVKGRFTISRDNSKNTLYLQMNSLRAEDTAVYYCARGSPIGYSYARVSYYYYMDVWGKGTTVTVSS VL: DIQMTQSPSSVSASVGDRVTITCRASQGISRWLAWYQQKPGKAPKLLIYAASSLQSGVPSRFSGSGSGTDFTLTISSLQPEDFATYYCQQGNSFPLTFGGGTKVEIK	63 nM	79 nM	2.54 nM	0.763 nM	–
Trypsin 1/Trypsin 2-Dual-L4-Ab2 (antibody, V domains shown) VH: QVQLVQSGAEVKKPGASVKVSCKASGYTFTDYAISWVRQAPGQGLEWMGWISASTADTNYAQKLQGRVTMTTDTSTSTAYMELRSLRSDDTAVYYCARGDEVVGKMTYYYGMDVWGQGTTVTVSS VL: DIQMTQSPSSVSASVGDRVTITCRASQGISRWLAWYQQKPGKAPKLLIYAASSLQSGVPSRFSGSGSGTDFTLTISSLQPEDFATYYCQQANSFPITFGGGTKVEIK	2.07 nM	2.03 nM	< 0.01 nM	0.0372 nM	5.51 nM
Trypsin 1/Trypsin 2-Dual-L1-Ab2 (antibody, V domains shown) VH: EVQLLESGGGLVQPGGSLRLSCAASGFTFGDYAMWWVRQAPGKGLEWVSAISASGDVTYYADSVKGRFTISRDNSKNTLYLQMNSLRAEDTAVYYCARGSLIGYSYARVSYYYYSDVWGKGTTVTVSS VL: DIQMTQSPSSVSASVGDRVTITCRASQGISRWLAWYQQKPGKAPKLLIYAASSLQSGVPSRFSGSGSGTDFTLTISSLQPEDFATYYCQQGWSFPLTFGGGTKVEIK	3.7 nM	5.33 nM	< 0.01 nM	< 0.01 nM	7.98 nM
Trypsin 1/Trypsin 2-Dual-L2-Ab4 (antibody, V domains shown) VH: QVQLQESGPGLVKPSETLSLTCTVSGGSISSHYWHWIRQPAGKGLEWIGRIHTSGSTFYNPSLKSRVTMSVDTSKNQFSLKLSSVTAADTAVYYCARDLTNYGWSKSIRFYGMDVWGQGTTVTVSS VL: DIQMTQSPSSLSASVGDRVTITCQASQDISNYLNWYQQKPGKAPKLLIYDASNLETGVPSRFSGSGSGTDFTFTISSLQPEDIATYYCQQTDNFITFGGGTKVEIK	3.71 nM	5.6 nM	< 0.01 nM	0.00904 nM	4.97 nM
Trypsin 1/Trypsin 2-Dual-L3-Ab1 (antibody, V domains shown) VH: not shown VL: EIVMTQSPATLSVSPGERATLSCRASQSVGSNLAWYQQKPGQAPRLLIYGASTRATGIPARFSGSGSGTEFTLTISSLQSEDFAVYYCQQFHNWPPLTFGGGTKVEIK	5 nM	16 nM	0.0177 nM	0.159 nM	–
Trypsin 1/Trypsin 2-Dual-L5-Ab1 (antibody, V domains shown) VH: not shown VL: EIVMTQSPATLSVSPGERATLSCRASQSVGSNLAWYQQKPGQAPRLLIYGASTRATGIPARFSGSGSGTEFTLTISSLQSEDFAVYYCQQFHNWPPLTFGGGTKVEIK	45 nM	23 nM	0.151 nM	0.227 nM	–

Second part, the binder after the results:

IC50 Against 1 nM hTryp-1 [1]	IC50 Against 1 nM hTryp-2 [2]	Kd [3]	Kd [4]	IC50 Against 0.25 nM Native Trypsin (Native Trypsin (abcam))	Binder
2.4 nM	2.7 nM	0.00465 nM	0.0274 nM	–	Trypsin 1/Trypsin 2-Dual-L4-Ab5 (antibody, V domains shown) VH: QVQLVQSGAEVKKPGASVKVSCKASGYTFTDYAISWVRQAPGQGLEWMGWISASTADTNYAQKLQGRVTMTTDTSTSTAYMELRSLRSDDTAVYYCARQDEVVGKMTYYIGTDVWGQGTTVTVSS VL: DIQMTQSPSSVSASVGDRVTITCRASQGISRWLAWYQQKPGKAPKLLIYAASSLQSGVPSRFSGSGSGTDFTLTISSLQPEDFATYYCQQANSFPITFGGGTKVEIK
1.8 nM	14 nM	0.0809 nM	0.547 nM	–	Trypsin 1/Trypsin 2-Dual-L4-Ab1 (antibody, V domains shown) VH: QVQLVQSGAEVKKPGASVKVSCKASGYTFTSYGISWVRQAPGQGLEWMGWISAYSGDTNYAQKLQGRVTMTTDTSTSTAYMELRSLRSDDTAVYYCARGDEVVGKMTYYYGMDVWGQGTTVTVSS VL: DIQMTQSPSSVSASVGDRVTITCRASQGISRWLAWYQQKPGKAPKLLIYAASSLQSGVPSRFSGSGSGTDFTLTISSLQPEDFATYYCQQANSFPITFGGGTKVEIK
2.05 nM	2.01 nM	< 0.01 nM	0.0206 nM	5.48 nM	Trypsin 1/Trypsin 2-Dual-L4-Ab4 (antibody, V domains shown) VH: QVQLVQSGAEVKKPGASVKVSCKASGYTFTDYAISWVRQAPGQGLEWMGWISASTADTNYAQKLQGRVTMTTDTSTSTAYMELRSLRSDDTAVYYCARGTEVVGKMTVYLGMDVWGQGTTVTVSS VL: DIQMTQSPSSVSASVGDRVTITCRASQGISRWLAWYQQKPGKAPKLLIYAASSLQSGVPSRFSGSGSGTDFTLTISSLQPEDFATYYCQQANSFPITFGGGTKVEIK
2.31 nM	2.01 nM	0.00841 nM	0.0451 nM	4.43 nM	Trypsin 1/Trypsin 2-Dual-L4-Ab3 (antibody, V domains shown) VH: QVQLVQSGAEVKKPGASVKVSCKASGYTFTDYAISWVRQAPGQGLEWMGWISASTADTNYAQKLQGRVTMTTDTSTSTAYMELRSLRSDDTAVYYCARGDEVVGKRTYYIGMDVWGQGTTVTVSS VL: DIQMTQSPSSVSASVGDRVTITCRASQGISRWLAWYQQKPGKAPKLLIYAASSLQSGVPSRFSGSGSGTDFTLTISSLQPEDFATYYCQQANSFPITFGGGTKVEIK
2.3 nM	2.44 nM	0.0118 nM	0.0219 nM	4.63 nM	Trypsin 1/Trypsin 2-Dual-L2-Ab3 (antibody, V domains shown) VH: QVQLQESGPGLVKPSETLSLTCTVSGGSISSHYWHWIRQPAGKGLEWIGRIATSGSTYYNPSLKSRVTMSVDTSKNQFSLKLSSVTAADTAVYYCARDLTNYGITKSIRFYGMDVWGQGTTVTVSS VL: DIQMTQSPSSLSASVGDRVTITCQASQDISNYLNWYQQKPGKAPKLLIYDASNLETGVPSRFSGSGSGTDFTFTISSLQPEDIATYYCQQVDNFITFGGGTKVEIK
2.67 nM	3.3 nM	0.000891 nM	0.00988 nM	5.51 nM	Trypsin 1/Trypsin 2-Dual-L2-Ab2 (antibody, V domains shown) VH: QVQLQESGPGLVKPSETLSLTCTVSGGSISSNYWHWIRQPAGKGLEWIGRIHTSGSTFYNPSLKSRVTMSVDTSKNQFSLKLSSVTAADTAVYYCARDITNYGSGKSIRFYPMDVWGQGTTVTVSS VL: DIQMTQSPSSLSASVGDRVTITCQASQDISNYLNWYQQKPGKAPKLLIYDASNLETGVPSRFSGSGSGTDFTFTISSLQPEDIATYYCQQDDTFITFGGGTKVEIK
46 nM	79 nM	2.61 nM	2.2 nM	–	Trypsin 1/Trypsin 2-Dual-L2-Ab1 (antibody, V domains shown) VH: QVQLQESGPGLVKPSETLSLTCTVSGGSISSYYWSWIRQPAGKGLEWIGRIYTSGSTNYNPSLKSRVTMSVDTSKNQFSLKLSSVTAADTAVYYCARDLTNYGSGKSIRFYGMDVWGQGTTVTVSS VL: DIQMTQSPSSLSASVGDRVTITCQASQDISNYLNWYQQKPGKAPKLLIYDASNLETGVPSRFSGSGSGTDFTFTISSLQPEDIATYYCQQDDNFITFGGGTKVEIK
2.75 nM	4.29 nM	0.00562 nM	0.0292 nM	5.95 nM	Trypsin 1/Trypsin 2-Dual-L3-Ab2 (antibody, V domains shown) VH: QVQLVQSGAEVKKPGASVKVSCKASGYTFTDHYMHWVRQAPGQGLEWMGAINPSSGGTAYAQKFQGRVTMTRDTSISTAYMELSRLRSDDTAVYYCARVGGAARVGKAYTASAFDIWGQGTMVTVSS VL: EIVMTQSPATLSVSPGERATLSCRASQSVGSNLAWYQQKPGQAPRLLIYGASTRATGIPARFSGSGSGTEFTLTISSLQSEDFAVYYCQQFHNWPPLTFGGGTKVEIK
5.87 nM	6.09 nM	< 0.01 nM	0.00648 nM	9.82 nM	Trypsin 1/Trypsin 2-Dual-L5-Ab2 (antibody, V domains shown) VH: QVQLVQSGAEVKKPGASVKVSCKASGYTFEGHYMHWVRQAPGQGLEWMGAINPYSGQTNYAQKFQGRVTMTRDTSISTAYMELSRLRSDDTAVYYCARDFVLLLRQSRILHESAFDIWGQGTTVTVSS VL: EIVMTQSPATLSVSPGERATLSCRASQSVGSNLAWYQQKPGQAPRLLIYGASTRATGIPARFSGSGSGTEFTLTISSLQSEDFAVYYCQQFHNWPPLTFGGGTKVEIK
